Results reported in patent publication US20040208887A1.

Legend:
[1] = biological target: recombinant soluble HCV E1 protein (hepatitis C virus); assay: ELISA, recombinant E1 captured on GNA lectin; control Fab
[2] = biological target: BSA (Sigma) (UniProt P02769); assay: ELISA, BSA coated as negative control antigen; control Fab
[3] = biological target: recombinant E1/E2 heterodimer protein (genotype 1a) (hepatitis C virus genotype 1a) (UniProt P26664); assay: ELISA, E1/E2 heterodimer coated; control Fab
recombinant E1/E2 heterodimer protein (genotype 1a) (hepatitis C virus genotype 1a), sequence (P26664 192-383 limits assumed, chain 1 of 2): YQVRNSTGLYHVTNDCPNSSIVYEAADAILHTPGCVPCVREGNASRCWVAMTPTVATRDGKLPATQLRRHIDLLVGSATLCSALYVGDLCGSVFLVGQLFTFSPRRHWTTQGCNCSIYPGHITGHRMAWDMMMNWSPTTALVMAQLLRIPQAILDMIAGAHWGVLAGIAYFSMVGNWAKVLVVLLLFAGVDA
recombinant E1/E2 heterodimer protein (genotype 1a) (hepatitis C virus genotype 1a), sequence (P26664 384-746 limits assumed, chain 2 of 2): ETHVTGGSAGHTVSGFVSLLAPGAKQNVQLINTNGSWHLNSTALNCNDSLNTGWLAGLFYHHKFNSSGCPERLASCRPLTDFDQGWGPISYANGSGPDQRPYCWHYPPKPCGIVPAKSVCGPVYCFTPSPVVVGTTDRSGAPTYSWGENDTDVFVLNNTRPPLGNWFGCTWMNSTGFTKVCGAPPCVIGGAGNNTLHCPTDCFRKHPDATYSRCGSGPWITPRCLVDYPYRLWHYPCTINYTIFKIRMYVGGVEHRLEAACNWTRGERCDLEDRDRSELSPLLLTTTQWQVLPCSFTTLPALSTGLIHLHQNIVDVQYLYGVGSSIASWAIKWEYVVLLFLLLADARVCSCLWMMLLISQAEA

BSA (Sigma), sequence (P02769 25-607 limits assumed): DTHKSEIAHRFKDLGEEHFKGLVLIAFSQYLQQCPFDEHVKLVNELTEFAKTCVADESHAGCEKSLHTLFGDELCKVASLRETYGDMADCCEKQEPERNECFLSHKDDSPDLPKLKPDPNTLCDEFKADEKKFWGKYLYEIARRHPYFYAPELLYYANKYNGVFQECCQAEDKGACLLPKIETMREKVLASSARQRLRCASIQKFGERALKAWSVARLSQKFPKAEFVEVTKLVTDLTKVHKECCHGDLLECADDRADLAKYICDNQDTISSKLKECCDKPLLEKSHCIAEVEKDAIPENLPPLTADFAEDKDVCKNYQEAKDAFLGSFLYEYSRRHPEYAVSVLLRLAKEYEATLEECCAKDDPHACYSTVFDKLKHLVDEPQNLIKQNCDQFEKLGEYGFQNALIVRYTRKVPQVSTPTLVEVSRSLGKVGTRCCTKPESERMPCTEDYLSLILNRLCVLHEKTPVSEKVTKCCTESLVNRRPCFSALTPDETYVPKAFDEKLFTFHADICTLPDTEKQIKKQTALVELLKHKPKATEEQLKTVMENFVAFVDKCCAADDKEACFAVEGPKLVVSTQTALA

## non-specific Fab
[1]
  OD405 nm: 0.2 OD405 nm
[2]
  OD405 nm: 0.14 OD405 nm
[3]
  OD405 nm: 0.11 OD405 nm
